Assay [1] has as its target LC3B (two-hybrid bait) (UniProt Q9GZQ8). The assay can be described thus: mammalian 2-hybrid assay. The conditions noted are these: CHOK.1 cells, LC3B as bait, read off a plot.
The target in assay [2] is LC3C (two-hybrid bait) (UniProt Q9BXW4). Briefly: mammalian 2-hybrid assay. To be noted: CHOK.1 cells; LC3C as bait; parent: est. 79; read off a plot.
The target in assay [3] is TAX1BP1 zinc finger domain (human) (UniProt Q86VP1). The assay can be described thus: NMR titration; 1H/15N HSQC of 15N-labelled TAX1BP1 zinc fingers (P0 150 μM) with increasing unlabelled ubiquitin, and the reciprocal titration of 15N-labelled ubiquitin; PBS, 10 mM β-mercaptoethanol, 20°C; shift changes of peaks of each zinc finger fitted to a single site-binding model.

UniProt Q9BXW4, sequence (Q9BXW4 whole entry, the tested form may be a part): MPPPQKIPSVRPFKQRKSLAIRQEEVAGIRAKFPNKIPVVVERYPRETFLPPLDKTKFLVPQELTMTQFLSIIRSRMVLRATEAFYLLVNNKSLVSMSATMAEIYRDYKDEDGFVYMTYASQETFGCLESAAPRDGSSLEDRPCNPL

In the case of “TAX1BP1 full-length wild-type (two-hybrid prey) (from UniProt Q86VP1) V144S”, the response in assay [1] (parent: est. 85) was 20; in assay [1] (parent: est. 98), 27; in assay [2], 34.

For “mono-ubiquitin (from UniProt P0CG48 1-76) (natural protein)”, in assay [3], the KD, site ZF1 (N-terminal module) turned out to be 70 µM and the KD, site ZF2 (C-terminal module) was 7 µM.
